Test results taken from patent US20180258163A1 (Chugai, published 2018).

T1: soluble human FcγRIIb (human, UniProt P31994 43-217, limits assumed)
T1 construct: soluble His-tagged form; also called hFcγRIIb
T1 sequence (looked up): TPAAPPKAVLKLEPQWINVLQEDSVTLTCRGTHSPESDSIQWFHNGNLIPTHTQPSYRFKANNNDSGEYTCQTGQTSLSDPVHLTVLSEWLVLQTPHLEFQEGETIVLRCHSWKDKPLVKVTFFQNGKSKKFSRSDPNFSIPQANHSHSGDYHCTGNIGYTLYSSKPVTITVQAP


molecular target: T2, human IgE (human, UniProt P01854-1 1-428); test: SPR, IgE on chip, Ab analyte, pH 5.8, 37C
T2 construct: whole IgE; also called hIgE
Procedure: (§1) Affinities of Ab2 and Ab3 for human IgE at pH 7.4 and pH 5.8 were evaluated as follows. The binding activity (dissociation constant KD (M)) of anti-hIgE antibodies toward hIgE were evaluated using BIACORE T200 (GE Healthcare). Measurements were carried out using the following two buffers as the running buffers: (1) 1.2 mM CaCl₂/0.05% tween 20, 20 mM ACES, 150 mM NaCl, pH 7.4; and (2) 1.2 mM CaCl₂/0.05% tween 20, 20 mM ACES, 150 mM NaCl, pH 5.8.
(§2) Then, to regenerate the sensor chip, 10 mM glycine-HCl at pH 1.5 was injected. All measurements were carried out at 37° C. Association rate constants ka (1/Ms) and dissociation rate constants kd (1/s) were calculated by analyzing the measurement results by curve-fitting using the BIACORE T200 Evaluation Software (GE Healthcare), and dissociation constants KD (M) were calculated based on those values.

T2 sequence (P01854 other isoform, or with tags, fused parts or gaps): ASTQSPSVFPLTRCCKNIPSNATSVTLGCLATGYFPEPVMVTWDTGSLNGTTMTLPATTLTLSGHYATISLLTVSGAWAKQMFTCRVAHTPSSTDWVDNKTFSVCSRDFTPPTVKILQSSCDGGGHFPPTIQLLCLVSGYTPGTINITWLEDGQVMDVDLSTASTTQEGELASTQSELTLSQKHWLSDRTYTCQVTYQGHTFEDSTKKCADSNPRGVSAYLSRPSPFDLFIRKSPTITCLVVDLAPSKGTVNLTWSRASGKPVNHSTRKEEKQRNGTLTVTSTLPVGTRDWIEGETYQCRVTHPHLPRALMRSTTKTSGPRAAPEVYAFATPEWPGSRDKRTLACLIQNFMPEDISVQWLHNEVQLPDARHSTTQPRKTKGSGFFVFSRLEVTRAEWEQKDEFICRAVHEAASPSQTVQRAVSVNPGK

Row | Kd [nM] | koff [s⁻¹] | kon [M⁻¹ s⁻¹] | Binder
1 | 97 | 0.053 | 550000 | Ab2 (antibody, human IgG1, kappa, V domains shown) VH: QSVEESGGRLVTPGTPLTLTCTVSGFSLSSFNMDWVRQAPGEGLEWIGAVSTGGSAYYAKWAKGRFTISKTSTAVDLKITSPTTEDTATYFCARVDSSGWGYFDLWGQGTLVTVSS VL: AIEMTQTPFSVSAAVGGTVTINCQASENIYSSLAWYQQKPGQPPKLLIYYASNLASGVSSRFKGSGSGTDFTLTISDLECADAATYYCQSYYFISSTDFNAFGGGTEVVVKR
2 | 230 | 0.033 | 140000 | Ab3 (antibody, human IgG1, kappa, V domains shown) VH: QSLEESGGDLVKPGASLTLTCTTSVFDLSSYYWICWVRQAPGKGLEWIACVYATSGSTDYATWAKGRLTISKASSTTVTLQMTSLTAADTATYFCARGGIYGGDGFNLWGPGTLVTVSS VL: AFELTQTPASVEAAVGGTVTINCQASESISNWLAWYQQKPGQPPKLLIYRASTLTSGVPSRFKGSGSGTEFTLTISDLECADAATYYCQSYDPSIIDGFAFGGGTEVVVKR

molecular target: T1, soluble human FcγRIIb; test: SPR, Ab-IgE complex over captured hFcγRIIb, pH 7.4, 25C
Procedure: Regarding the produced Fc region variant-containing antibodies, binding assays between soluble human FcγRIIb and antigen-antibody complexes were performed using BIACORE T200 (GE Healthcare). Soluble human FcγRIIb (NCBI accession NM_004001.3) was produced in the form of a His-tagged molecule by a method known in the art. An appropriate amount of an anti-His antibody was fixed onto Sensor chip CM5 (GE Healthcare) by the amine coupling method using a His capture kit (GE Healthcare) to capture human FcγRIIb. Next, an antibody-antigen complex and a running buffer (as a reference solution) were injected, and interaction was allowed to take place with the human FcγRIIb captured onto the sensor chip. 20 mM N-(2-Acetamido)-2-aminoethanesulfonic acid, 150 mM NaCl, 1.2 mM CaCl₂, and 0.05% (w/v) Tween 20 at pH 7.4 was used as the running buffer, and the respective buffer was also used to dilute the soluble human FcγRIIb. To regenerate the sensor chip, 10 mM glycine-HCl at pH 1.5 was used. All measurements were carried out at 25° C. Analyses were performed based on binding (RU) calculated from sensorgrams obtained by the measurements, and relative values when the binding amount of Ab1H/Ab1L (original Ab1) was defined as 1.00 are shown. To calculate the parameters, the BIACORE T100 Evaluation Software (GE Healthcare) was used.

Row | Binder | BIACORE fold (relative binding, original Ab1=1.00) [fold]
3 | Ab1H-P1466m/Ab1L (antibody, human IgG1, kappa, name in EU numbering, copies: 2 + 2) heavy: not shown light: DIQMTQSPSSVSASVGDRVTITCQASESIYSGLAWYQQKPGQPPKLLIYDHSTLASGVPSRFSGSGSGTEYALTISSLQPEDFATYYCQHADYAHHSDNVFGGGTKVEIKRTVAAPSVFIFPPSDEQLKSGTASVVCLLNNFYPREAKVQWKVDNALQSGNSQESVTEQDSKDSTYSLSSTLTLSKADYEKHKVYACEVTHQGLSSPVTKSFNRGEC | 1.22
4 | Ab1H-P1470m/Ab1L (antibody, human IgG1, kappa, name in EU numbering, copies: 2 + 2) heavy: not shown light: DIQMTQSPSSVSASVGDRVTITCQASESIYSGLAWYQQKPGQPPKLLIYDHSTLASGVPSRFSGSGSGTEYALTISSLQPEDFATYYCQHADYAHHSDNVFGGGTKVEIKRTVAAPSVFIFPPSDEQLKSGTASVVCLLNNFYPREAKVQWKVDNALQSGNSQESVTEQDSKDSTYSLSSTLTLSKADYEKHKVYACEVTHQGLSSPVTKSFNRGEC | 1.19
5 | Ab1H-P1481m/Ab1L (antibody, human IgG1, kappa, name in EU numbering) heavy: not shown light: DIQMTQSPSSVSASVGDRVTITCQASESIYSGLAWYQQKPGQPPKLLIYDHSTLASGVPSRFSGSGSGTEYALTISSLQPEDFATYYCQHADYAHHSDNVFGGGTKVEIKRTVAAPSVFIFPPSDEQLKSGTASVVCLLNNFYPREAKVQWKVDNALQSGNSQESVTEQDSKDSTYSLSSTLTLSKADYEKHKVYACEVTHQGLSSPVTKSFNRGEC | 1.08
6 | Ab1H-P1468m/Ab1L (antibody, human IgG1, kappa, name in EU numbering, copies: 2 + 2) heavy: not shown light: DIQMTQSPSSVSASVGDRVTITCQASESIYSGLAWYQQKPGQPPKLLIYDHSTLASGVPSRFSGSGSGTEYALTISSLQPEDFATYYCQHADYAHHSDNVFGGGTKVEIKRTVAAPSVFIFPPSDEQLKSGTASVVCLLNNFYPREAKVQWKVDNALQSGNSQESVTEQDSKDSTYSLSSTLTLSKADYEKHKVYACEVTHQGLSSPVTKSFNRGEC | 1.13
7 | Ab1H-P1480m/Ab1L (antibody, human IgG1, kappa, name in EU numbering) heavy: not shown light: DIQMTQSPSSVSASVGDRVTITCQASESIYSGLAWYQQKPGQPPKLLIYDHSTLASGVPSRFSGSGSGTEYALTISSLQPEDFATYYCQHADYAHHSDNVFGGGTKVEIKRTVAAPSVFIFPPSDEQLKSGTASVVCLLNNFYPREAKVQWKVDNALQSGNSQESVTEQDSKDSTYSLSSTLTLSKADYEKHKVYACEVTHQGLSSPVTKSFNRGEC | 1.03
8 | Ab1H-P1469m/Ab1L (antibody, human IgG1, kappa, name in EU numbering, copies: 2 + 2) heavy: not shown light: DIQMTQSPSSVSASVGDRVTITCQASESIYSGLAWYQQKPGQPPKLLIYDHSTLASGVPSRFSGSGSGTEYALTISSLQPEDFATYYCQHADYAHHSDNVFGGGTKVEIKRTVAAPSVFIFPPSDEQLKSGTASVVCLLNNFYPREAKVQWKVDNALQSGNSQESVTEQDSKDSTYSLSSTLTLSKADYEKHKVYACEVTHQGLSSPVTKSFNRGEC | 1.13
9 | Ab1H-P1482m/Ab1L (antibody, human IgG1, kappa, name in EU numbering) heavy: not shown light: DIQMTQSPSSVSASVGDRVTITCQASESIYSGLAWYQQKPGQPPKLLIYDHSTLASGVPSRFSGSGSGTEYALTISSLQPEDFATYYCQHADYAHHSDNVFGGGTKVEIKRTVAAPSVFIFPPSDEQLKSGTASVVCLLNNFYPREAKVQWKVDNALQSGNSQESVTEQDSKDSTYSLSSTLTLSKADYEKHKVYACEVTHQGLSSPVTKSFNRGEC | 1.46
10 | Ab1H-P1471m/Ab1L (antibody, human IgG1, kappa, name in EU numbering, copies: 2 + 2) heavy: not shown light: DIQMTQSPSSVSASVGDRVTITCQASESIYSGLAWYQQKPGQPPKLLIYDHSTLASGVPSRFSGSGSGTEYALTISSLQPEDFATYYCQHADYAHHSDNVFGGGTKVEIKRTVAAPSVFIFPPSDEQLKSGTASVVCLLNNFYPREAKVQWKVDNALQSGNSQESVTEQDSKDSTYSLSSTLTLSKADYEKHKVYACEVTHQGLSSPVTKSFNRGEC | 1.19

More lines, now with the values ahead:

Row | BIACORE fold (relative binding, original Ab1=1.00) [fold] | Binder
11 | 1.2 | Ab1H-P1514m/Ab1L (antibody, human IgG1, kappa, name in EU numbering, copies: 2 + 2) heavy: not shown light: DIQMTQSPSSVSASVGDRVTITCQASESIYSGLAWYQQKPGQPPKLLIYDHSTLASGVPSRFSGSGSGTEYALTISSLQPEDFATYYCQHADYAHHSDNVFGGGTKVEIKRTVAAPSVFIFPPSDEQLKSGTASVVCLLNNFYPREAKVQWKVDNALQSGNSQESVTEQDSKDSTYSLSSTLTLSKADYEKHKVYACEVTHQGLSSPVTKSFNRGEC
12 | 1.21 | Ab1H-P1513m/Ab1L (antibody, human IgG1, kappa, name in EU numbering, copies: 2 + 2) heavy: not shown light: DIQMTQSPSSVSASVGDRVTITCQASESIYSGLAWYQQKPGQPPKLLIYDHSTLASGVPSRFSGSGSGTEYALTISSLQPEDFATYYCQHADYAHHSDNVFGGGTKVEIKRTVAAPSVFIFPPSDEQLKSGTASVVCLLNNFYPREAKVQWKVDNALQSGNSQESVTEQDSKDSTYSLSSTLTLSKADYEKHKVYACEVTHQGLSSPVTKSFNRGEC
13 | 0.79 | Ab1H-P1653m/Ab1L (antibody, human IgG1, kappa, name in EU numbering, copies: 2 + 2) heavy: not shown light: DIQMTQSPSSVSASVGDRVTITCQASESIYSGLAWYQQKPGQPPKLLIYDHSTLASGVPSRFSGSGSGTEYALTISSLQPEDFATYYCQHADYAHHSDNVFGGGTKVEIKRTVAAPSVFIFPPSDEQLKSGTASVVCLLNNFYPREAKVQWKVDNALQSGNSQESVTEQDSKDSTYSLSSTLTLSKADYEKHKVYACEVTHQGLSSPVTKSFNRGEC
14 | 1.24 | Ab1H-P1512m/Ab1L (antibody, human IgG1, kappa, name in EU numbering, copies: 2 + 2) heavy: not shown light: DIQMTQSPSSVSASVGDRVTITCQASESIYSGLAWYQQKPGQPPKLLIYDHSTLASGVPSRFSGSGSGTEYALTISSLQPEDFATYYCQHADYAHHSDNVFGGGTKVEIKRTVAAPSVFIFPPSDEQLKSGTASVVCLLNNFYPREAKVQWKVDNALQSGNSQESVTEQDSKDSTYSLSSTLTLSKADYEKHKVYACEVTHQGLSSPVTKSFNRGEC
15 | 1.19 | Ab1H-P1515m/Ab1L (antibody, human IgG1, kappa, name in EU numbering, copies: 2 + 2) heavy: not shown light: DIQMTQSPSSVSASVGDRVTITCQASESIYSGLAWYQQKPGQPPKLLIYDHSTLASGVPSRFSGSGSGTEYALTISSLQPEDFATYYCQHADYAHHSDNVFGGGTKVEIKRTVAAPSVFIFPPSDEQLKSGTASVVCLLNNFYPREAKVQWKVDNALQSGNSQESVTEQDSKDSTYSLSSTLTLSKADYEKHKVYACEVTHQGLSSPVTKSFNRGEC
16 | 1.02 | Ab1H-P1483m/Ab1L (antibody, human IgG1, kappa, name in EU numbering) heavy: not shown light: DIQMTQSPSSVSASVGDRVTITCQASESIYSGLAWYQQKPGQPPKLLIYDHSTLASGVPSRFSGSGSGTEYALTISSLQPEDFATYYCQHADYAHHSDNVFGGGTKVEIKRTVAAPSVFIFPPSDEQLKSGTASVVCLLNNFYPREAKVQWKVDNALQSGNSQESVTEQDSKDSTYSLSSTLTLSKADYEKHKVYACEVTHQGLSSPVTKSFNRGEC

molecular target: T2, human IgE; test: SPR, IgE on chip, Ab analyte, pH 7.4, 37C
Procedure: as §1, §2

Row | Kd [nM] | koff [s⁻¹] | kon [M⁻¹ s⁻¹] | Binder
17 | 1.5 | 0.0045 | 2.9e+06 | Ab2 (antibody, human IgG1, kappa, V domains shown) VH: QSVEESGGRLVTPGTPLTLTCTVSGFSLSSFNMDWVRQAPGEGLEWIGAVSTGGSAYYAKWAKGRFTISKTSTAVDLKITSPTTEDTATYFCARVDSSGWGYFDLWGQGTLVTVSS VL: AIEMTQTPFSVSAAVGGTVTINCQASENIYSSLAWYQQKPGQPPKLLIYYASNLASGVSSRFKGSGSGTDFTLTISDLECADAATYYCQSYYFISSTDFNAFGGGTEVVVKR
18 | 4.9 | 0.0079 | 1.6e+06 | Ab3 (antibody, human IgG1, kappa, V domains shown) VH: QSLEESGGDLVKPGASLTLTCTTSVFDLSSYYWICWVRQAPGKGLEWIACVYATSGSTDYATWAKGRLTISKASSTTVTLQMTSLTAADTATYFCARGGIYGGDGFNLWGPGTLVTVSS VL: AFELTQTPASVEAAVGGTVTINCQASESISNWLAWYQQKPGQPPKLLIYRASTLTSGVPSRFKGSGSGTEFTLTISDLECADAATYYCQSYDPSIIDGFAFGGGTEVVVKR
